The target of the experiment is VHL-ELOB-ELOC (VBC) complex (UniProt P40337 54-213; Q15370 1-104; Q15369 17-112). The experiment is described as follows: fluorescence polarisation; competitive FP for fragment screening, 384-well plates; 0.5 uM VBC, 20 nM FITC peptide, 10 mM HEPES pH 7.5, 0.0025% Tween 20, 50 mM NaCl, 1 mM EDTA, 1 mM DTT; small-molecule competitors (VH032 as reference). The following applies: both partners purified. A general note: Polarisation of emitted light reports the rotation of a fluorescent probe.

Non-standard residues stand in square brackets, D forms with d. No end group written: not given here. *: point of attachment. FITC = O=C1OC2(c3ccc(O)cc3Oc3cc(O)ccc32)c2ccc(NC(=S)*)cc21; Hyp = O=C(O)[C@@H]1C[C@@H](O)CN1

{FITC}-LEALA[Hyp]YIPA [FITC-LEALA-HyP-YIPA peptide]: the binding result is given as “binds”.

The values above are taken from paper PMC11779939, “Identification of novel 7-hydroxycoumarin derivatives as ELOC binders with potential to modulate CRL2 complex formation” (Scientific Reports, 2025).
